Measurements reported in the supplement of paper PMC9170038.

Test system: MS2 coat protein
Assay: apparent KD of MS2 coat protein; designed switch direction (-1 OFF switch, 1 ON switch): -1; higher = weaker reporter binding
In short: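 RNA switches sharing common flanks were transcribed by stalled E. coli RNA polymerase on Illumina chips. A doubling series of SNAP-549-labelled MS2 coat protein, from 0.7 or 1.5 nM to 3 µM, was applied in Tris-HCl pH 7.5 buffer with KCl, MgCl2, BSA, DTT, tRNA and Tween-20. Each step lasted 0.8–1.5 h at the bottom of the series and 10–20 min at the top. Normalised cluster fluorescence was curve-fitted, giving apparent KD as the per-design median over clusters.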

[1] = input ligand: microRNA oligo, concentration not stated
[2] = Eterna round: R95, input ligand: FMN 200 uM
[3] = Eterna round: R95, input ligand: microRNA oligo, concentration not stated
[4] = Eterna round: R95, input ligand: none

| Sequence | apparent KD of MS2 coat protein (input ligand: FMN 200 uM) [nM] | apparent KD of MS2 coat protein [1] [nM] | apparent KD of MS2 coat protein (input ligand: none) [nM] | apparent KD of MS2 coat protein [2] [nM] | apparent KD of MS2 coat protein [3] [nM] | apparent KD of MS2 coat protein [4] [nM] |
| --- | --- | --- | --- | --- | --- | --- |
| AGAGUGGAGACAGGAUAUGAGAAUAGAUAGAAAUCAGAAGGGUCACAUGAGGAUCACCCAUGUAAAGUCUUGAGGAUGAGUGAU [Prohibition 1 - Jieux - Exclusion NG1] (Eterna round: R96, puzzle: Exclusion NG 1) | 156 | 65.3 | 81.7 | – | – | – |
| AUAUUGUGAGGAUAUGAACUUAGUAUGGAAAGAUACUAAGUUCAGAAGGCACAUGAGGAUCACCCAUGUUUCUC [Long static hairpin v12] (Eterna round: R97, puzzle: Exclusion 4) | 34 | – | 26.9 | – | – | – |
| AAAAGCUCAGUCAGGAUAUGCAUUUGCACCGGCGAGCAGAAGGGACAUGAGGAUCACCCAUGUACGCGGCAGGG [Laaraor] (puzzle: Brourd's mod of Exclusion 4) | – | – | – | 80.8 | 37.1 | 59.9 |
| UGCAGUGAUCCAGAAUGUUACAUGAGGAUCACCCAUGUUAGUAUUGUUUAGUUGUAUAAGUUUGUUGUUCGUUUUAU [JR_STOV1_v2_Sub079] (Eterna round: R97, puzzle: Sensor, turn-off variant 1) | 68.8 | – | 202 | – | – | – |
| AUUUAGAGAGGAUAUAUAAAGUGAAACAUGAGGAUCACCCAUGUAAUUUUAUGGAUGUAAAUAGAAGGCUCAUUUU [Mat - Exclusion 5 - JL mod - D3] (puzzle: Exclusion 5) | – | – | – | – | 36.5 | – |
| AACCAGCGAGGAUAUGCUUGCGCGUGUUCUAGUUGUAAUCGACUUGAGGAUCACCCAAGUAGAAGGCGCUGCCG [EX2 #50] (Eterna round: R97, puzzle: Exclusion 2) | 103 | – | 119 | – | – | – |
| CCGGAAAUACAGGAUAUAGGAGUCGAUAGACUCCUAGAAGGGUAUACAUGAGGAUCACCCAUGUGUCCUACCGG [Fiskers Ex 6 - 70] (puzzle: Exclusion 6) | – | – | – | – | 22.8 | – |
| UACACUGCAUGAGGAUCAAACAUGAGGAUCACCCAUGUAUAGCAGGCUUUUUGUACGUCUUAUAAUUAUGUAGUGUA [Electric Eye 16 - Jieux - Sensor, turn-off variant 1] (Eterna round: R97, puzzle: Sensor, turn-off variant 1) | 15.9 | – | – | – | – | – |
| UACACUGCAUGAGGAUCAAACAUGAGGAUCACCCAUGUAUAGCAGGCUUUUUGUGCGUCUUAUAAUUAUGUAGUGUA [Electric Eye 18 - Jieux - Sensor, turn-off variant 1] (Eterna round: R97, puzzle: Sensor, turn-off variant 1) | 14.9 | – | 15.3 | – | – | – |
| ACAUGAGGAUCACCCAUGUGACCACGAUGGCUGAUGUAGAGCUAGGAUAUGAGUGAAUAUCUAUCUCAGAAGGAGCUUGACUGG [Deportation 49 - Jieux - Exclusion NG 3] (Eterna round: R96, puzzle: Exclusion NG 3) | 25.7 | 16.4 | 26.2 | – | – | – |
| AAUAAUGAUAAGGAUAUUACUAGCGAUAGCUAGUGAGAAGGUAUCACAUGAGGAUCACCCAUGUGUUCCAAUAA [Ex6/6-B4] (Eterna round: R97, puzzle: Exclusion 6) | 70.1 | – | 17.3 | – | – | – |
| GUGGCACAUGAGGAUCACCCAUGUCAGGAUAUCGCGUGGUUUUUUUCGGCCGCGCGCGCGAGAAGGGACGUCUU (puzzle: Exclusion 1) | – | – | – | – | 27.2 | – |
| UACAUGAGGAUCACCCAUGUUUUGUCGUGUAUGGUAUUUAUCUAGGAUAUCAUUUUAUUGAGUUAUGAGAAGGAGAAUAUUAAU [JMF's solution 91] (Eterna round: R96, puzzle: Exclusion NG 3) | 39.8 | 28.5 | 32.3 | – | – | – |
| AUAAAUCAUGUAGGAUAUGCGUGGCAAAGCUAUGCAGAAGGACAUGAGGAUCACCCAUGUGCUUCCGUCUGAGAACAGACGGUA [Mat - Exclusion NG 1 - Mod of JL - D24] (Eterna round: R96, puzzle: Exclusion NG 1) | 130 | 61.6 | 82.3 | – | – | – |
| UCAGACAUGAGGAUCACCCAUGUGUGACCCUCCUGUCUCAGUCAGGAUAUACUUUUUCAAACUUAGUAGAAGGGACAACAAAAC [Oronerused] (Eterna round: R96, puzzle: Exclusion NG 3) | 37.8 | 27.8 | 61.4 | – | – | – |
| GAAAUCGAAGGAUAUCCGGGUGUCCACAUGAGGAUCACCCAUGUACUGGCCAAUAGCCAGGGAGAAGGUCGCCCAA [EX5 A.3] (Eterna round: R97, puzzle: Exclusion 5) | 131 | – | 104 | – | – | – |
| AAAACGUCAGGAUAUACAGAAGAGAUCACAAAAAAAAAAAAACAUGAGGAUCACCCAUGUAGAAGGGACAAAAA [Ex2 Malc#2] (Eterna round: R96, puzzle: Exclusion 2) | 185 | 81.2 | 115 | – | – | – |

| Sequence | apparent KD of MS2 coat protein (input ligand: FMN 200 uM) [nM] | apparent KD of MS2 coat protein [1] [nM] | apparent KD of MS2 coat protein (input ligand: none) [nM] | apparent KD of MS2 coat protein [2] [nM] | apparent KD of MS2 coat protein [3] [nM] | apparent KD of MS2 coat protein [4] [nM] |
| --- | --- | --- | --- | --- | --- | --- |
| AAAGAGCGAGGAUAUACAUGAGGAUCACCCAUGUGAAGAUGCAUGGUCUGAACGUCUGGUAGAAGGCGUAUGAA [Rebierce] (puzzle: Exclusion 3) | – | – | – | – | 119 | – |
| CUUGUCCGAGGAUAUAUUUUGUGAUACAUGAGGAUCACCCAUGUUAUAAGAUGGAUAUAAAUAGAAGGCGGACGAG [Mat - Exclusion 5 - JL mod - D69] (puzzle: Exclusion 5) | – | – | – | 35.7 | 44 | 47 |
| UCUUCACAUGAGGAUCACCCAUGUCAGGAUAUAAGGUCUUGUCUACGUUGAAGGGACUUUAGAAGGGACACUUG [EX1 B.6] (Eterna round: R97, puzzle: Exclusion 1) | 107 | – | 36 | – | – | – |
| UAUUUACAUGAGGAUCACCCAUGUCAGGAUAUGCGUCUAUCGUCGAAAGACGAUAGUCGCAGAAGGGACAAUAU [LRO-Excl01-22 mod derived from EliFisker 4.24] (Eterna round: R97, puzzle: Exclusion 1) | 100 | – | 48.9 | – | – | – |
| GAAUAGAGAGGAUAUGCAAUGAAGGUAGUACGAUAUGUCUGACAUGAGGAUCACCCAUGUAGAAGGCUCAGAUC [EX2 #9] (Eterna round: R97, puzzle: Exclusion 2) | 63.8 | – | 29.8 | – | – | – |
| AAAACUGGUGUUAGGAUAUUCCUAGGAAAGCUUGGGAAGAAGGGACAUGAGGAUCACCCAUGUCCAGUGAUCAG [Eternabot (Original) Solution 19] (Eterna round: R97, puzzle: Brourd's mod of Exclusion 4) | 19.1 | – | 21.6 | – | – | – |
| AAGGGUGCCCUUAGAAAGACAUGAGGAUCACCCAUGUAGACUGAGGAUAUCCACUCCUAAGGACCGGAGAAGGCAGUGUAAUGC [Qubion] (Eterna round: R96, puzzle: Exclusion NG 3) | 16.9 | 13.8 | 18.2 | – | – | – |
| UUAUAACAUGUAGGAUAUGCGUGGCGAAGCUAUGCAGAAGGACAUGAGGAUCACCCAUGUUCCUGCGUCCGCGUACGGAUGCAA [JL Eng1 1.21 mod 1] (Eterna round: R96, puzzle: Exclusion NG 1) | 34.1 | 14.1 | 14.3 | – | – | – |
| AGUAACUAUCACGAAAGUGAUAGUUACAAACAAGUGAAAACAUGAGGAUCACCCAUGUCCUCAUUUGCUCGUCUUAU [Sensor 3 - 7] (puzzle: Sensor v3, turn-off variant 2) | – | – | – | 182 | 884 | 329 |
| AAUUUACAUGAGGAUCACCCAUGUCAGGAUAUGGUUUUAUUUUUUUCUUUUUUUGAUUCCAGAAGGGACAGUUA (puzzle: Exclusion 1) | – | – | – | – | 91.5 | – |
| UGUUGUUACGCAGGAUAUGAGGAUCACCCAUAGAAGGAUAUCGAAAGAGAAGGUCUGAGGAUUACCCAGAAGGGCGGGUUAACA [pwkr exNG2 2xF5 2xFMN.1] (Eterna round: R96, puzzle: Exclusion NG 2) | 714 | 153 | 139 | – | – | – |
| ACAAGCUUUUUGUUCGUCUUAUACACUCCUAAGAGGACAACAUGAGGAUCACCCAUGUAACAAAGACGAACUCAUGU [Sesor Array 10 - Jieux - Sensor v3, turn-off variant 2] (puzzle: Sensor v3, turn-off variant 2) | – | – | – | 14.3 | 96.3 | 11.4 |
| AGAUGACAUGAGGAUCACCCAUGUUAGGAUAUUUAAGCCUGUACGCGCGUACUAGACGAGAGAAGGGACAUGGC [Eternabot (Original) Solution 39] (Eterna round: R97, puzzle: Exclusion 1) | 33.9 | – | 30.7 | – | – | – |
| CGAAAGUUAGGAUAUGCCCGGAACGACAUGAGGAUCACCCAUGUUAGCAAGGGACCUGGCGCAGAAGGAACGGAUA [EX5 C.20] (Eterna round: R97, puzzle: Exclusion 5) | 20.2 | – | 19.3 | – | – | – |
| AAUUAUUAUCGAGGAUAUCGUAUUGAAAUAAUAUGAGAAGGCGGGAUAAACAUGAGGAUCACCCAUGUGAGCCUGAUGCUUGUG [Ex NG1 #38] (Eterna round: R96, puzzle: Exclusion NG 1) | – | 14.9 | – | – | – | – |
| GAGUGACAUGAGGAUCACCCAUGUGAGGAUAUCGGACGGACCAAGUUAACAUCCGCCGCGAGAAGGCACAUCGG [Exclusion 1 V23] (puzzle: Exclusion 1) | – | – | – | – | 104 | – |
| AGUCAGGCGGUAGGAUAUCCAAACCGAGUGACCCUCUCAUAACAUGAGGAUCACCCAUGUCGGUGGGAGAAGGGCCGUACGGCG [Atra] (Eterna round: R96, puzzle: Exclusion NG 2) | 206 | 90 | 117 | – | – | – |
